Measurements published in article PMC9452295 (2022).

Tests used:
[1] = target: T1, MRAS(1–178)–Avi, biotinylated, wild type (human, UniProt O14807 1-178, biotin on the Avi tag); assay: SPR; +PP1Cα(P50R)
T1 chain: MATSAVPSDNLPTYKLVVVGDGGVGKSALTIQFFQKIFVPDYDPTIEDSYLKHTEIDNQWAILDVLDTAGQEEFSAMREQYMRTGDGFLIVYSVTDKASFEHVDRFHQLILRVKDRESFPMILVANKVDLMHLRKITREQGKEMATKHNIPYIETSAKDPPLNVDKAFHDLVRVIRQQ

[2] = target: T1, MRAS(1–178)–Avi, biotinylated, wild type; assay: SPR; +PP1Cα

Kd [1]: 34.8 nM
Kd [2]: 86.3 nM
B1: SHOC2 (residues 80–582, LRR domain), wild type (domain or fragment)
chain: GTRKKSSNAEVIKELNKCREENSMRLDLSKRSIHILPSSIKELTQLTELYLYSNKLQSLPAEVGCLVNLMTLALSENSLTSLPDSLDNLKKLRMLDLRHNKLREIPSVVYRLDSLTTLYLRFNRITTVEKDIKNLSKLSMLSIRENKIKQLPAEIGELCNLITLDVAHNQLEHLPKEIGNCTQITNLDLQHNELLDLPDTIGNLSSLSRLGLRYNRLSAIPRSLAKCSALEELNLENNNISTLPESLLSSLVKLNSLTLARNCFQLYPVGGPSQFSTIYSLNMEHNRINKIPFGIFSRAKVLSKLNMKDNQLTSLPLDFGTWTSMVELNLATNQLTKIPEDVSGLVSLEVLILSNNLLKKLPHGLGNLRKLRELDLEENKLESLPNEIAYLKDLQKLVLTNNQLTTLPRGIGHLTNLTHLGLGENLLTHLPEEIGTLENLEELYLNDNPNLHSLPFELALCSKLSIMSIENCPLSHLPPQIVAGGPSFIIQFLKMQGPYRAMV
